From the NTF2 design screens of Basanta et al. (2020)

Experiment: protease stability score; higher = more stable; yeast display proteolysis, trypsin and chymotrypsin;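 note: relative to predicted unfolded state with 0 unfolded-like and 1 meaning tenfold more protease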

Sequence | protease stability score
DETKEDTNRWIEHELRALKTGNWKEQFKNLDPNVRMHLHVGDKNKDLHGREKVTTELRRLFEEFGIKHIHLTNFEVQGDKIHLIMHIEVDGRHIELHLIVTKIDGKWHMESIEMHFR | 0.866
TEDERDFREFWERWLHNTVTGDEELLSRMMDPHAKLHVGDKENVGMEEAARLFVEISDELRLHSFHIRHEEHQGDKVILHTRMNVRINGKEINFRTVMIVRKIDGRWIIRSFQID | 0.713
DHEEEHARSIIELLLYAFTTGNEKLLRRLIDPDAKVDIDGKSLHGMEDVSRHLREMIDHWRFRHIDVRRLEVQGEWIHITGRWDGDQGDKKVERDVEVRVLVVDGRVKHRSIHFR | 1.34
DSLHEKVEIMAHLLVEIIRTGNEEDWRRYVDPNVRIRIGDKDLHGREEAFRVVREIRIIVHDIKIRSLDVQGDKVESDVEVDVEFRIGDKVNRIHTRFRLIWTKVDGRWINESMSIE | 2.61
DEHEEFLHRWAEQFLKNMITGDFDRLHELLDPHVRWRIGDKDSIGWKTIIDVVKDLLREIRIEDVTLHRIEVQGDKSIIVITTIVEIDGRRYRTTVIIRMRIIDGRLKSVDVEER | 1.31
DDSAKWTEIALKIKSHDSDTGNEEKIRRLLDPNVRIEINGQEIHGRDKISKWLSEIRIQIEHVDTERYELQGNKAIVDGRMHIKVSYGDKEMHFDIKFEIEVHKVDGQWLIHSERII | 0.754
DDHHEELRKFVEELSRARETGDEELIESLIDPHVKINVGDKRLHGRRAVEILLHEWRVHFFHSERMEVYGDKARIEGHMNGEYNGRRHETKLEMYVHKVNGKWILQHFTVE | 2.17
DEEKRRASELIIHLWHNFLTGNEDRFRELFDPNVKAKLDVGDKSVDHIGRDHVLDWLRLVRHEIRIHHYEHKRERVYGDKWESDGHVDGEFNGRRTETHFEIILVIIDGKLHFLILNFH | -0.076
SELEQELKHFVRLMKEIMRTGNWDLFERYADPNVRLEINGRDYIGRELASESLRHFVEEWGLDRVDVRVEHSSFQGDKAHSKINTDFNGQERTVHYDVLKVDGRWIVQRVRIE | 2.06
DESEKMFKEIWRLLIESHRTGDEDSLERLADPHARMDFNGVEHHGRRELVRILSEHYKRVDHIHLIIRDMDVQGNKVTMRGELVLEFNGRRQTHDVTIILSKVDGVWYLHSIIVR | 1.53
DEEKKLSDFAFRLLEENLRTGNEDDIRRYADPSVKIEVGDKTIHGMEAVSRVITEWRVHDLKIEREEIQGNKVHIDSNIDGQVGEKREHSLLILIMVKVNGRWVIKSIRIH | 0.386
SEEQEITEHFSHLWLEWYLTGDFHKMLKFADPNTKMHIGDKHDHGMERYQEYERRFLEQYKGAKIYIKTVEHYDGRVVIDNIFRFDGREYQLIIEIIVVDGRLKSVHSDMK | 1.25
DELEKDARKLFEMIYRMLKTGDEDHFLRLADPDVRVHQGDKEIHGMDISKQIVEDLGIQKIEVHVHKVEIQGDKVDITGEVNWNGQNINLIVYTEKVNGKWRIHSVELH | 1.61
DEEEAHTRHILELFKHNYHTGDEDLFRRLLDPNVRLHIDGVNIHGREEVVEVLVKLAHEIRVELRVKHIRIINGVAEVDIELTIHQGDKHESRKIHLFILKVNGRWRVESIQWR | 1.42
NEEEKLSEEWSDHLLHNLITGDEEMLKRFMDPHTWAESEVDGQDEKYHGREQALHMVYRVIHRLGFNHFHIHRHRVIGDKIHVELRIVVGDKEVDAHFETIIINGKVHRIRIHVTKR | 0.323
HEKEKLEKDIWRLLVEWLETGNEHEFEKFMDPDARLFEDVDGKELRIHGREIAMEILHHLWRDFGVDHLVLKKASIIDGVVHLDVILDVNGRRIDTRIIFVIINGRIHSTHIHIR | 1.52
DEEKRRSHELADLWWEMLETGDWDRTKNLMDPDTRLHIGDKEDHGMENFYRFRKDFESQFPNMRIELKSHRVQGDFFEIKGKINFNGRLVEAEIRVKIVDGRLKEIHVHIK | 0.821
HEWERLHHEAMEHFLRLQETGNEKTLQELADPDARLHYNGKDYHGRESMLKFWIELGVDHIHLHDFRIQGDKMEIHMDDHQGDKRLHTIIIHRKVNGQWHLQSEKIH | 0.548

Sequence | protease stability score
DEEKKNIERLTEILAHVIRTGDEESWERMMDPNARATQGDKVMVGRDLLEHLWRRIDVIDHVRLEPKHVHRQGDKIHIDVENEVHGTVNGVKISEKHKEILVIYKFDGRWHFHSIEIT | 0.064
DEHRRELKEAIEMMLTALYTGDEKILLELIDPNTRLDVNGRELHGRDDWVEETRRIKNLKFHVHHIDVQGEKIHVDGLVIFNGRERRVHYNAEKYDGRWILTHINVR | 1.22
DEDKESTDKMLELMLHLIKTGDFEIFEHLFDPNVRVNVGDKERVGWKEALKFRRQWRLHHMEVRDVHKVGDKMHVDSRIDGSVNGVREEDRTEIILVKYDGRWFITSIEFH | 0.99
DEELNEWEEWMRRAMKADETGDEDTVTHMLDPNVKFDIDGVELVGREEFIRFFRELRISFHHFKFDHIRDINGRVRVEGTVHLEIIIGEFRHRDDRRTERIELKINGRWYIHSMKIG | 1.18
DEERENIEKALRLLEHFNKTGNEEDINRLMDPHARSHINGKDVHGREEVVRMLRELGVERIEVEDLEIERSKQVDGRIEIHVHTVVNFNGRHTEFRVEIIAVKVNGKWIMRSVIFE | 1.56
DEDRFETELAVDLWLRTLETGDEHFLHRLADPRVQLEYGNFHYHGRHEFLHWFHDLKRKYKNLRVDIRDVRDIDGRIILHTELKQGDKHIESKVYMEKYDGRWLIKSYEIR | 0.971
SEDEKIAQRLLDLLLESFITGDEQMDRELLDPNVKMEVGDKELHGREEALEWFTRVAKRVDHMRFTLTHMDIIDGRIIIQGRVEQFFNGRKVTTRYNLLVLKIDGRWRIEEIRYH | 1.42
DEEKDIMERIADLMLELSETGDEHTYKRMADPNVRLRFNGVDIHGMDNISKYLKEFFERIDHVEFEIKDFRSFDGRYNNRGLLILNVGDKRIIIDITIRVEVVNGRVKERQVDID | 0.749
DETREESYEFLWKLIHNWQTGNEDRLDELIDPHVRLVVGDKNHHGREELIELIREILERADHLRMRMRHFRVQGDKAEVDTRLQMEIGDKSIDTETHVRIIVVDGRVKYLEYEIK | 0.459
DHDDERVEHFARHWVHNFLTGDWKKLTDQVDPHVRLDVNGQKFHGREAIREWLEHILREIRVHDLKFDHIHLQGDYTIIEGTQIIHYNGRTEIRKTRIEFIIVDGKFQEIRIKTL | 1.43
SEEEEEAWRSTEKWTHSEKTGDFESLLRLADPNARVHVNGRELVGMETVIRRFIEHVERFKNIRIQHHTEHIEFYGDKVIIDSRLHISIGDKTITITIELVTTKFNGRWLLQEITIK | 0.475
SEDDRDAEKMSKDWIHLMLTGDEDHLRELLDPNVRMEQGDKEFIGRELLVEVFSRTVKHLGIKHIQLEESRTNVQGEKVIVILIMDYRAENRRVEFHIHLIVDKVNGRWLVQSVRFRFK | 1.25
DDREEELRKMTELMLKAEQTGDEDHWMHLADPHVRVIVNGREFIGREEWARHHEEHRRKVKNIRIHVRIRDSEVQGDKLILDTELELRIGDKTIIRDVEINMTIINGRLRSLEIRIK | 1.17
DEIEHESEEILRMWLHAIKTGDEEFLKQYIDPHAKLDINGVEFHGREHIVRFIVELRMHDHRVQDSRKVGNKVILHTRVDSIIGDKRIDTHVTIIVRKIDGKWRLEEYRVS | 2.55
DELEDLAQKTHELFVQHYRTGDEDHLRHLLDPNAIMEIGDYHFIGREEILKFLVHWRIHRSEIKHLHVQGDKAEQEVEVDIEIGDKRFRTETHSIWIKINGKWFMHDFTVK | 2.17
DEEEEILRTFIRLMHEAWLTGDWKTFEEMLDPHARLHINGKDLHGREQMARRIEELGIKHVEDKDMETQGNKIHLKQIVYVNGRTFELRQFIIKVNGRWVIQHVEVITR | 1.38
REDDEMSEEANRLLHELVRTGDFEQLIKNMDPNTRLRQGDKHFHGREEYEKHWRELLERAGLERVELHIDDIRVFNGVAHINGTLRIGDKVMEVRLILTKFNGKWIFTSMEIH | 1.26
NEEEQEILEDVEEHIRAEYTGDEEVLDNLADPNTRIHYGEKELHGREEWLQLVHDEHNRFKGMKIEVIIRHIDIYDGRVRSEGELHIHVGDKEYHVDVQMILTKVNGRWLLTRIHFH | 0.093
